IC50 and Stability (T1/2 (h)) data for eight molecules are collected here from patent US20190307868A1.

The first test deals with HLA-B08:01 (human). Put plainly: competitive inhibition of 125I-labeled probe peptide binding to purified HLA class I. Conditions: remark: other sources report otherwise.
WLHKRGKYI [… (AKT1, E17K)] displayed an IC50 of 417 nM. For the molecule FLPSTLKSL [… (ESR1, S463P)], the IC50 came to 1970 nM.

Another test deals with HLA-A02:01 (human). Put plainly: pMHC-I dissociation half-life, 125I-b2m. Conditions: remark: other sources report otherwise.
With LVVVGAVGV, the Stability (T1/2 (h)) came to 0.6 h.

For the molecule LVVVGACGV, the Stability (T1/2 (h)) came to 0.6 h. As for LVVVGADGV, the Stability (T1/2 (h)) was determined as 0 h.

The next test deals with HLA-A02:01 (human). Put plainly: competition with 125I-labelled probe peptide, purified HLA. The note with it: remark: other sources report otherwise.
Molecule LVVVGACGV registered a half-maximal inhibitory concentration (IC50) of 1210 nM. For the molecule LVVVGADGV, the IC50 is 1190 nM.

The target in a further test is HLA-B08:01 (human). Put plainly: peptide-MHC-I complex dissociation half-life, 125I-b2m, 37 C. Conditions: remark: other sources report otherwise.
The molecule WLHKRGKYI [… (AKT1, E17K)] returned a Stability (T1/2 (h)) of 1.3 h. SLPRFILMEL [… (ALK, L1196M)]: the Stability (T1/2 (h)) was 0 h. The same measure, in the same setting: with FLPSTLKSL [… (ESR1, S463P)] the figure was 0 h; with SVCFFFFSV [… (CNOT1(+1))], 0 h; with QLIMQLMPF [… (EGFR, T790M)], 0 h.
